Data taken from patent US20260125454A1 (SHANGHAI JUNSHI BIOSCIENCES, published 2026).
Where “and” joins values, the source holds several entries; their conditions need not be identical. Equal values may be shown once. Read-outs that look alike come from different tables or passages of the source. Bridges are numbered along the chain shown (N, C = ends). Where no end group is shown, it is not given here. The star is where a group is joined. Biotin = O=C1N[C@H]2[C@H](CS[C@H]2CCCCC(=O)*)N1

How the values were obtained:
[1] = target: T1, Biotin-huCGRPaSA (human, not fully specified; biotin (position not given)); experiment: ELISA, transfection supernatant, biotin-CGRP on streptavidin
T1 construct: exact construct ('aSA') not explained; also called Biotin CGRPaSA; full-length (1-37) CGRP
T1 peptide: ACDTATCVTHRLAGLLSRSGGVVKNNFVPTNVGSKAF
Experimental: Streptavidin was diluted to 0.5 μg/mL by using PBS (Hyclone) and added into a plate at 100 μL/well. The plate was incubated in a thermostat incubator at 37° C. for 90 min and then washed. 2% BSA was added to the plate at 200 μL/well, and the plate was incubated in the thermostat incubator at 37° C. for 90 min and washed. Biotin-huCGRPaSA was diluted to 2.0 μg/mL with 2% BSA and added into the plate at 100 μL/well, and the plate was incubated in the thermostat incubator at 37° C. for 60 min. The reference antibody (47-RM) was diluted to 2500 ng/ml with a diluent (2% BSA) and serially 4-fold diluted to 0.15 ng/mL, and the chimeric antibodies were diluted with a cell supernatant stock solution. All the chimeric antibody solutions and the reference antibody solution were added into plates at 80 μL/well, and the plates were incubated in a thermostat incubator at 37° C. for 60 min and washed. An HRP-conjugated mouse anti-human antibody IgG4 (manufacturer: Southern Biotech, Cat. No. 9200-05; Fc specificity) was diluted 5000-fold with 2% BSA and added into the plates at 100 μL/well, and the plates were incubated in the thermostat incubator at 37° C. for 60 min and washed. 0.1 mg/mL chromogenic reagent TMB was carefully added at 100 μL/well to avoid bubbles, and the system was incubated at 37° C. for 10 min away from light for chromogenic reaction. Finally, a 2 M hydrochloric acid solution was added at 100 μL/well to stop the reaction while avoiding bubbles, and the plates were read on a microplate reader within 10 min (the detection wavelength was 450 nm; the reference wavelength was 620 nm).

[2] = target: CGRP antigen; experiment: cell-based or functional assay
[3] = target: T2, Biotin-1-19 polypeptide (human, disulfide 2-7; not fully specified (N-terminus); printed as Biotin-Linker(G5)-ACDTATCVTHRLAGLLSRS; ends not checked; also: biotin, position not given here); experiment: ELISA, transfection supernatant, biotin-CGRP(1-19) on streptavidin
T2 construct: also called fragment CGRP (1-19); truncated (1-19) CGRP
T2 peptide: ACDTATCVTHRLAGLLSRS
Experimental: Streptavidin was diluted to 0.5 μg/mL by using PBS (Hyclone) and added into a plate at 100 μL/well. The plate was incubated in a thermostat incubator at 37° C. for 90 min and then washed. 2% BSA was added to the plate at 200 μL/well, and the plate was incubated in the thermostat incubator at 37° C. for 90 min and washed. Biotin-1-19 polypeptide was diluted to 2.0 μg/mL with 2% BSA and added into the plate at 100 μL/well, and the plate was incubated in the thermostat incubator at 37° C. for 60 min. The reference antibody (Lily) was diluted to 2500 ng/ml with a diluent (2% BSA) and then serially 4-fold diluted to 0.15 ng/ml. For chimeric antibodies, the stock solution was diluted. All the chimeric antibody solutions and the reference antibody solution were added into plates at 80 μL/well, and the plates were incubated in a thermostat incubator at 37° C. for 60 min and washed. An HRP-conjugated mouse anti-human antibody IgG4 (manufacturer: Southern Biotech, Cat. No. 9200-05; Fc specificity) was diluted 5000-fold with 2% BSA and added into the plates at 100 µL/well, and the plates were incubated in the thermostat incubator at 37° C. for 60 min and washed. 0.1 mg/mL chromogenic reagent TMB was carefully added at 100 μL/well to avoid bubbles, and the system was incubated at 37° C. for 10 min away from light for chromogenic reaction. Finally, a 2 M hydrochloric acid solution was added at 100 μL/well to stop the reaction while avoiding bubbles, and the plates were read on a microplate reader within 10 min (the detection wavelength was 450 nm; the reference wavelength was 620 nm).

[4] = target: CGRP antigen; experiment: cell-based or functional assay; remark: listed apart in the source
[5] = target: T1, Biotin-huCGRPaSA; experiment: ELISA, purified antibody; relative to reference 47-RM-20190815
Experimental: Streptavidin was diluted to […] by using PBS (Hyclone) and added into a plate at 100 μL/well. The plate was incubated in a thermostat incubator at 37° C. for 90 min and then washed. 2% BSA was added to the plate at 200 μL/well, and the plate was incubated in the thermostat incubator at 37° C. for 90 min and washed. Biotin-huCGRPaSA was diluted to 2.0 μg/mL with 2% BSA and added into the plate at 100 μL/well, and the plate was incubated in the thermostat incubator at 37° C. for 60 min. The chimeric antibodies in Table 3 and reference antibody (47-RM-20190815) were diluted to 1000 ng/ml with a diluent (2% BSA) and serially 10-fold diluted to 1 ng/mL. All the chimeric antibody solutions and the reference antibody solution were added into plates at 100 μL/well, and the plates were incubated in a thermostat incubator at 37° C. for 60 min and washed. An HRP-conjugated mouse anti-human antibody IgG4 (manufacturer: Southern Biotech, Cat. No. 9200-05; Fc specificity) was diluted 5000-fold with 2% BSA and added into the plates at 100 μL/well, and the plates were incubated in the thermostat incubator at 37° C. for 60 min and washed. 0.1 mg/mL chromogenic reagent TMB was carefully added at 100 μL/well to avoid bubbles, and the system was incubated at 37° C. for 5 min away from light for chromogenic reaction. Finally, a 2 M hydrochloric acid solution was added at 100 μL/well to stop the reaction while avoiding bubbles, and the plates were read on a microplate reader within 10 min (the detection wavelength was 450 nm; the reference wavelength was 620 nm). EC₅₀ was fit by using a four-parameter logistic regression (4PL) model.

[6] = target: T3, hCGRP(1-37) (human, N-terminal biotin; C-terminal phenylalanine amide (F-NH2); CYS residues at positions 7 and 12 theoretically form 1 intrachain disulfide bond); experiment: BLI (Octet), biotin-peptide on SA probe, 45 nM Fab
T3 construct: also called polypeptide 1-37; full-length hCGRP (1-37) polypeptide
T3 peptide: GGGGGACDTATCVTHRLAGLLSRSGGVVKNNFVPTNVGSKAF
Experimental: (§1) The kinetic parameters of C245 Fab (Fab monomer fragments derived from antibody C245) binding to six synthetic human CGRP alpha polypeptide fragments (polypeptide 1-13, polypeptide 1-19, polypeptide 1-37, polypeptide 8-19, polypeptide 8-26, and polypeptide 13-24) were determined on an Octet RBD 96e system. Human CGRP synthetic polypeptide fragments were immobilized on the surfaces of SA bioprobes (Sartorius, Cat. No. 18-5019) at the following concentrations: 46.5 nM for hCGRP (1-13), 8.5 nM for CGRP (1-19), 15.5 nM for hCGRP (1-37), 8.5 nM for hCGRP (8-19), 15.5 nM for hCGRP (8-26), and 46.5 nM for hCGRP (13-24). The immobilized synthetic human CGRP polypeptide fragments were bound to 45 nM of C245 Fab and the binding dissociation curves were fitted using analytical software.
(§2) The kinetic parameters of hu224 Fab (Fab monomer fragments derived from humanized antibody hu224) binding to four synthetic human CGRP alpha polypeptide fragments (polypeptide 1-13, polypeptide 1-19, polypeptide 1-37, and polypeptide 8-19) were determined on an Octet RBD 96e system. Human CGRP synthetic polypeptide fragments were immobilized on the surfaces of SA bioprobes (Sartorius, Cat. No. 18-5019) at the following concentrations: 8.5 nM for CGRP (1-19), 15.5 nM for hCGRP (1-37), 10 nM for hCGRP (8-19), and 15.5 nM for hCGRP (8-26). The immobilized synthetic human CGRP polypeptide fragments were bound to 45 nM of hu224 Fab and the binding dissociation curves were fitted using analytical software.

[7] = target: T4, hCGRP(8-26) (human, N-terminal biotin); experiment: BLI (Octet), biotin-peptide on SA probe, 45 nM Fab
T4 construct: also called polypeptide 8-26
T4 peptide: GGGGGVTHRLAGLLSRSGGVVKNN
Experimental: as §1, §2

[8] = target: T5, hCGRP(8-19) (human); experiment: BLI (Octet), biotin-peptide on SA probe, 45 nM Fab
T5 construct: also called polypeptide 8-19
T5 peptide: Biotin-GGGGGVTHRLAGLLSRS
Experimental: as §1, §2

[9] = target: T6, hCGRP(1-19) (human, N-terminal biotin; CYS residues at positions 7 and 12 theoretically form 1 intrachain disulfide bond); experiment: BLI (Octet), biotin-peptide on SA probe, 45 nM Fab
T6 construct: also called polypeptide 1-19
T6 peptide: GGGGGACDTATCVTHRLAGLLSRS
Experimental: as §1, §2

[10] = target: CGRP antigen; experiment: cell-based or functional assay; remark: listed apart in the source

B1: C245 (antibody, V domains shown)
VH: EVQLQQSGPELVKPGASMKISCKASGYSFTGYTMNWVKQSHGNNLEWIGLINPYIGNTHYNQKFKDKATFTVDRSSSTAYMALLSLTSEDSAVYYCARELDSGFDYWGQGTTLTVSS
VL: DVLMTQTPLSLPVSLGDQASLSCRSSQNIVHSNGDTYLEWYLQKPGQSPKLLIYKVSNRFSGVPDRFSGSGSGTDFTLKISRVEAEDLGVYYCYQGSHVPWTFGGGTKLEIK
notes: 3C1-HC + 3C1-LC; chimeric, human constant regions; also called chimeric antibody C245
- OD value [1]: 3.31 OD
- Relative binding activity (%) vs Ref(Teva) [2]: 116%
- OD value [3]: 2.51 OD
- IC50 of reference C245 [4]: 0.018 µg/mL and 0.0236 µg/mL and 0.0259 µg/mL and 0.0281 µg/mL
- Relative activity (%) [5]: 240%

B2: hu224 Fab (Fab, V domains shown)
VH: QVQLVQSGAEVKKPGASVKVSCKASGYSFTGYTMNWVRQAPGQRLEWMGLINPYIGNTHYNQKFKDRVTFTVDRSSSTAYMELSSLRSEDTAVYYCARELDSGFDYWGQGTLVTVSS
VL: DVVMTQSPDSLAVSLGERATINCRSSQNIVHSNGDTYLEWYQQKPGQPPKLLIYKVSNRFSGVPDRFSGSGSGTDFTLTISSLQAEDVAVYYCYQGSHVPWTFGQGTKLEIK
notes: also called Fab monomer fragments derived from humanized antibody hu224
- Kd [6]: 0.288 nM
- koff [6]: 7.97e-05 s⁻¹
- kon [6]: 277000 M⁻¹ s⁻¹
- Kd [7]: 1.18 nM
- koff [7]: 0.000374 s⁻¹
- kon [7]: 316000 M⁻¹ s⁻¹
- Kd [8]: 0.445 nM
- koff [8]: 0.000151 s⁻¹
- kon [8]: 341000 M⁻¹ s⁻¹
- Kd [9]: 0.0823 nM
- koff [9]: 2.62e-05 s⁻¹
- kon [9]: 318000 M⁻¹ s⁻¹

B3: C255 (antibody, V domains shown)
VH: EVQLQQSGPELVKPGASVKISCKTSGYTFTDYNMHWVKQSHGKSLEWIGYISPYNGGTAYNQKFKFKSTLTVDTSSSTAYMELRSLTSEDSAVYYCAREGLGGYWGQGTTLTVSS
VL: DIVLTQSPASLAVSLGQRATISCKASQNIDYDGYAYLNWYQQKPGQPPKVLIYSVFNLESGIPARFSGSGSGTDFTLNIHPVEEEDAATYYCQQSNEFPYTFGGGTKLEVK
notes: 3E5-HC + 1A2-LC2; chimeric, human constant regions
- OD value [1]: 3.11 OD
- Relative binding activity (%) vs Ref(Teva) [10]: 74.9%
- Relative activity (%) [5]: 108%

B4: C232 (antibody, V domains shown)
VH: EVQLQQSGPELVKPGASMKISCKASGYSFTGYTMNWVKQSHGNNLEWIGLINPYIGNTHYNQKFKDKATFTVDRSSSTAYMALLSLTSEDSAVYYCARELDSGFDYWGQGTTLTVSS
VL: DIVLTQSPASLAVSLGQRATISCKASQNIDYDGYAYLNWYQQKPGQPPKVLIYSVFNLESGIPARFSGSGSGTDFTLNIHPVEEEDAATYYCQQSNEFPYTFGGGTKLEVK
notes: 3C1-HC + 1A2-LC2; chimeric, human constant regions
- OD value [1]: 3.28 OD
- OD value [3]: 3.15 OD
- Relative activity (%) [5]: 3.4%
